The results in this text go back to the nanobody polyreactivity screen of Harvey et al. (2022).

The data set can be described thus: yeast display, Sf9 membrane polyspecificity reagent, FACS + sequencing; frameworks hold sequencing errors. Summed up:
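A synthetic nanobody library was expressed on Saccharomyces cerevisiae BJ5465 by galactose induction for 36–48 hours. The library was stained for 1 hour at 4 °C with 10% biotinylated, detergent-solubilized Sf9 membrane reagent and enriched with streptavidin microbeads before FACS. Low and high (top ~1%) gates were set on anti-HA fluorescence for expression and streptavidin fluorescence for reagent binding, and each polyreactivity label reflects the gate of origin.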
Turning to “QVQLVESGGGLVQAGGSLRLSCAASGYTFPKYAMGWYRQAPGKERELVAAITKRGGRTYYADSVKGRFTISRDNAKNTVYLQMNSLKPEDTAVYYCAVDLDGPEYSQVHYDYWGQGTQVTVSS”, the “polyreactivity (PSR sort gate)” value is “high polyreactivity”.
The same measure for “QVQLVESGGGLVQAGGSLRLSCAASGYTFPLYAMGLYRQAPGKERELVADINIGGASTYYADSVKGRFTISRDNAKNTVYLQMNSLKPEDTAVYYCAKEYYDGYFPTFDYDYWGQGTQVTVSS”: “low polyreactivity”; for “QVQLVESGGGLVQAGGSLRLSCAASGYTFPLYAMGWYIQAPGKETELVADINIGGASTYYADSVKGRFTISRDNAKNTVYLQMNSLKPEDTAVYYCAKEYYDGYFPTLDYDYWGQGTQVTVSS”: “low polyreactivity”.
The same measure for “QVQLVESGGGLVQAGGSLRLSCAASGYTFPPNAMGWYSQAPGKERELVAAISWRGDSTYYADSVKGRFTISRDNAKNTVYLQMISLKPEDTAVYYCAAGYRRGPDIYYYWGQVTQVTVSS”: “low polyreactivity”.
For “QVQLVESGGGLVQAGGSLRLSCAASGYTFPRNAMGWYRQEPGKERELVAAISASGGRTSYADSVKVRFTISRDNAKNTVYLQMNSLKPEDTAVYYCAAPFLRRIGYPRSYDYWGQGTQVTVSS” the value was “high polyreactivity”; for “QVQLVESGGGLVQAGGSLRLSCAASGYTFPYYAMGWYIQAPGKERELVAAISRSGGTTYYADSVKGRFTISRDNAKNTVYLQLNSLKPEDTAVYYCAALYGSRSTYHMDDYWGQGTQVTVSS”, “high polyreactivity”.
Take “QVQLVESGGGLVQAGGSLRLSCAASGYTFQKYAMGWYRQAPGKERESVAAITRSGTRTYYADSVKGRFTISRDNAKNTVYLQMNSLKPEDTAVYYCAAETYYSIYDYWGQGTQVTVSS”: the “polyreactivity (PSR sort gate)” value was “high polyreactivity”.
For “QVQLVESGGGLVQAGGSLRLSCAASGYTFQYYTMGWYRQAPGKERELVAAISSSGGRTYYADSVKGRFTISRDNAKNTVYLQMNSLKPEDTAVYYCAATYSYRSDYYSWGQGTQVTVSS” the value was “high polyreactivity”; for “QVQLVESGGGLVQAGGSLRLSCAASGYTFRANGMGWYRQAPGKERELVAAITQSVDNTYYADSVKGRFTISRDNAKNTVYLQVNSLKPEDTAVYYCATEYGQTGYPQMGYWGQGTQVTVSS”, “low polyreactivity”; for “QVQLVESGGGLVQAGGSLRLSCAASGYTFRGYAMGWYRQAPGKEREFVAAINWSDGSTYYADSVKGRFTISRDNAKNTVYLQMNSLKPEDTAVYYCNADQYYRVPDNYWGQGTLVTVSS”, “low polyreactivity”.
As to “QVQLVESGGGLVQAGGSLRLSCAASGYTFRGYAMGWYRQAPGKEREFVAAINWSDGSTYYADSVKGRFTISRDNAKNTVYLQMNSLKPEDTAVYYCNADQYYRVPDNYWGQGTQVTVSS”, the “polyreactivity (PSR sort gate)” value is reported as “low polyreactivity”.
In the case of “QVQLVESGGGLVQAGGSLRLSCAASGYTFRNNAMGWYRQAPGKEREFVAAISRSGARTYYADSVKGRFTISRDNAKNTVYLQMNSLKPEDTAVYYCAARESFEYDSWGQGTQVTVSS”, the “polyreactivity (PSR sort gate)” value is on record as “high polyreactivity”.
For “QVQLVESGGGLVQAGGSLRLSCAASGYTFRQYTIGWYRPAPGKERELVDAISRSGGSTYYADSVKGRFTISRDNAKNTVFLQMNSLKPEDTAVYYCNAEGYGRTDGFGYDYWGQGTQVTVSS” the value was “high polyreactivity”.
The same measure for “QVQLVESGGGLVQAGGSLRLSCAASGYTFRYYAMGWYRQAPGKERELVAAISRSGGSTYYADSVKGRFTISRDNAKNTVSLQMNSLKPEDTAVYYCAVALARPYEDYDYWGQGTQVTVSS”: “high polyreactivity”.
For “QVQLVESGGGLVQAGGSLRLSCAASGYTFRYYVMGWYRQAPGKERELDAAISQRGGSTYYADSVKGRFTISRDNAKNTVYLQMNSLKPEDTAVYYCAASYSTYASRGYGYWGQGTQVTVSS” the value was “high polyreactivity”; for “QVQLVESGGGLVQAGGSLRLSCAASGYTFSDNAIGWYRQAPGKERELVAAITSGVSTYYADSVKGRFTISRDNAKNTVYLQMNSLKPEDTAVYYCAKDVAVYADLYQGAPYGYWGQGTQVTVSS”, “low polyreactivity”.
With “QVQLVESGGGLVQAGGSLRLSCAASGYTFSHYDMGWYRQAPGKERELVAGITWSGGSTYYADSVKGRFTISRDNAKNTVYLQMNSLIPEDTSVYYCAAKYYWYYSYSGIPLFDYWGQGTQVTVSS”, the “polyreactivity (PSR sort gate)” value is recorded as “low polyreactivity”.
For “QVQLVESGGGLVQAGGSLRLSCAASGYTFSNNAMGWYRQAPGKERELVAAISRSTGSTYYADSVKGRFTISRDYAKNTVYLQMNSLKPEDTAVYYCAVYRHGYGYNYWGQGTQVTVSS” the value was “high polyreactivity”.
As for “QVQLVESGGGLVQAGGSLRLSCAASGYTFSQNAMGWYRQAPGKEREVVAGITTRGTTTYYADSVKGRFTISRDNAKNTVYLQMNSLKPEDTPVYYCAADNSYTDNYWGQGTQVTVSS”, the “polyreactivity (PSR sort gate)” value is given as “low polyreactivity”.
The same measure for “QVQLVESGGGLVQAGGSLRLSCAASGYTFSYYAMGWYRQAPGKERELVAAITSTGSTYYADSVKGRFTISRDNAKNTDYFQMNSLKPEDTEVYYCNVDVATVGPVDYWGQGTQVTVSS”: “low polyreactivity”; for “QVQLVESGGGLVQAGGSLRLSCAASGYTFTGNAMGWYRQAPGKERELVARITSVGRTYYADSVKGRFTISRDNAKNTVYLQMNSLKPEDTAVYYCAAQPYRYRYWPRVGGYDYWGQGTQVTVTS”: “high polyreactivity”; for “QVQLVESGGGLVQAGGSLRLSCAASGYTFTINAMGWYRQAPGKERELVAAISWNGGRTYYADAVKGRFTISRDNAKNTVYLQMNSLKPEDTAVCYCNADTYAAGDYWGQGTQVTVSS”: “high polyreactivity”.
In the case of “QVQLVESGGGLVQAGGSLRLSCAASGYTFTTYAMGWYRQAPGKEREFVASIRWRGGNTYYADSVKGRFTISRDNAKNTVYLQMNSQKREDTAVYYCARRVDYISSKYGYWGQGTQVTVSS”, the “polyreactivity (PSR sort gate)” value is listed as “high polyreactivity”.
For “QVQLVESGGGLVQAGGSLRLSCAASGYTFVDNAMGWYRQAPGKERELVAAINWDGASTYADSVKGRFTISRDNAKNTVYLQMNSLKPEDTAVYYCTASGKDIFNYVYQGYDYWGQGTQVTVSS” the value was “low polyreactivity”; for “QVQLVESGGGLVQAGGSLRLSCAASGYTFVIYAMGSYRQAPGKERELVAAITTIGGRTYYADSVKGRFTISRDNAKNTVYLQMNSLKPEDTAVYYCAADIRSNRLYDGGYWGLGTQVTVSS”, “low polyreactivity”; for “QVQLVESGGGLVQAGGSLRLSCAASGYTFVIYAMGWYRQAPGKERELVAAITTIGGRTYYADSVKGRFTISRDNAKNTVYLQMNSLKPEDTAVYYCAADIRSNRLYDGGYWGQGTQVTVSS”, “low polyreactivity”.
For “QVQLVESGGGLVQAGGSLRLSCAASGYTFWDYTMGWYRQAPGKEREFVAAINWSGGSTYYADSVKGRFTISRDNAKNTVYLQMNSLKPEDTAVYYCAARRGGRRGYDYWGQGTQVTVSS” the value was “high polyreactivity”; for “QVQLVESGGGLVQAGGSLRLSCAASGYTFWWYAMGWSRQAPGKERELVAAISIGGSTKYADSVKGRFTISRDNAKNTVYLQMNSLKPEDTAVYYCAAEVSYHYVPYGYWGQGTQVTVSS”, “low polyreactivity”.
For “QVQLVESGGGLVQAGGSLRLSCAASGYTFYFYAMGWSRQAPGKEREFVAAIRSSGGRTYYADSVKGRFTISRDNAKNNVYLQMNSLKPEDTAVYYCAAAGYYYSVDGAGPRYDYWGQGTQVTVSS” the value was “low polyreactivity”; for “QVQLVESGGGLVQAGGSLRLSCAASGYTFYINTMGWYRQAPGKEREFVAAITWSGGSTYYADSVKGRFTISRDNAKNTVYLQMNSLIPEDTAVYYCAADLYVGDMDYWGQGTQVTVSS”, “low polyreactivity”; for “QVQLVESGGGLVQAGGSLRLSCAASGYTFYLYAMGWYRQAPGKERELVAAISTNGGRTYYADSVKGRFTISRDNAKNTVYLQLNSLKPEDTAVYYCAVRSRGTAPQYYYWGQGTQVTVSS”, “high polyreactivity”.
In the case of “QVQLVESGGGLVQAGGSLRLSCAASGYTFYRYAMGWYRQAPGKERELVASITRSGGSTYYADSVKGRFTISRDNAKNTVYLQMNSLKPEDTAVYYCAAEYEFGHSSTPMDYWGQGTQVTVSS”, the “polyreactivity (PSR sort gate)” value was “high polyreactivity”.
On to “QVQLVESGGGLVQAGGSLRLSCAASGYTFYSNAMGWYRQAPGKERELVAVISRGGGTYYADSVKGRFTISRDNAKNTVYLQMNSLKPEDTAVYYCAASTFTYHWRYDYWGQGTEVTVSS”, for which the “polyreactivity (PSR sort gate)” value is “low polyreactivity”.
For “QVQLVESGGGLVQAGGSLRLSCAASGYTFYVYAMGWYRQAPGKERELVAAIRSGGTTYYADSVKGRFTISRDNAKYTVYLQMNSLKPEDTAVYYCAADVQDRYHRAWYDYWGQGTQVTVSS” the value was “low polyreactivity”.
The same measure for “QVQLVESGGGLVQAGGSLRLSCAASGYTFYYYAMGWYRQAPGKERELVAAISWSGGSTYYADSVKGRVTISRDNAKNTVYLQMNSLKPEDTAVYYCAAGVDLYYDLYDYEYWGQGTQVTVSS”: “low polyreactivity”; for “QVQLVESGGGLVQAGGSLRLSCAASGYTFYYYAMGWYRQAPGKERELVAGISGRGGSTYYADSVKGRFTISRDNAKNTVYLQMNSLKPEDTAVYYCAATSPRAGTRRYEYWGQGTQVTVSS”: “high polyreactivity”.
In the case of “QVQLVESGGGLVQAGGSLRLSCAASGYTIGIYAMGWYRQAPGKERELVAAISFSDGTTYYADSVKGRFTISRDNAKNTVYLQMNSLKPEDTAVYYCAAAAGGTVVGEGDYWGQGTQVTVSS”, the “polyreactivity (PSR sort gate)” value is recorded as “low polyreactivity”.
For “QVQLVESGGGLVQAGGSLRLSCAASGYTILIYAKGWYRQAPGKERELVASISRSGGSTYYADSVKGRFTISRDNAKNTVYLQMNSLKTEDTAVYYCNADFGYDSVVEYDYWGQGTQVTVSS” the value was “low polyreactivity”; for “QVQLVESGGGLVQAGGSLRLSCAASGYTILTNAMGWYRQAPGKERELVADITSSGGSTYYADSVKGRFTISRDNAKNTVYLQMNSLKPEDTAVYYCAKRWYRNRYGYWGQGTQVTVSS”, “high polyreactivity”; for “QVQLVESGGGLVQAGGSLRLSCAASGYTIYQYAMGWYRQAPRKERELVAAISSDASTSYADSVKGRFTISRDNAKNTVYLQMNSLKPEDTAVYYCAADPGPYYDWGYDYWGQGTQVTVSS”, “low polyreactivity”.
The same measure for “QVQLVESGGGLVQAGGSLRLSCAASGYTIYYYAMGWYRQAPGKERELVAVITSRGTRTYYADSVQGRFTISRDNAKNTVYLQMNSLKPEDTAVYYCNKARGVAYDWGQGTQVTVSS”: “high polyreactivity”.
